In assay [1] the target is T1, human GIP receptor (human), P48546.
T1 chain: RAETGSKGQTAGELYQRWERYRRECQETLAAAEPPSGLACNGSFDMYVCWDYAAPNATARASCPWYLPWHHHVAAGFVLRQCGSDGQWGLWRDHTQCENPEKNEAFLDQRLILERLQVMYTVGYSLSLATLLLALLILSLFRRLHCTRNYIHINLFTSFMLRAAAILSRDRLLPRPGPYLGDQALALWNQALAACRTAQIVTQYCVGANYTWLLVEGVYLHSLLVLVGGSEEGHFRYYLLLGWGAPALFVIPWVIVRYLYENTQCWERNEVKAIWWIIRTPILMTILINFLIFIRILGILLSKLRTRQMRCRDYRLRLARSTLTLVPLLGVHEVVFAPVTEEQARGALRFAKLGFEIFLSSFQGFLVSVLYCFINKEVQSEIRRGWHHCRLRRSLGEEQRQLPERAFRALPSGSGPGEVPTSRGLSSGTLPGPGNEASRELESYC
Put plainly: cell-based or functional assay.

The target of assay [2] is T2, human GLP-1 receptor (human), P43220.
T2 chain: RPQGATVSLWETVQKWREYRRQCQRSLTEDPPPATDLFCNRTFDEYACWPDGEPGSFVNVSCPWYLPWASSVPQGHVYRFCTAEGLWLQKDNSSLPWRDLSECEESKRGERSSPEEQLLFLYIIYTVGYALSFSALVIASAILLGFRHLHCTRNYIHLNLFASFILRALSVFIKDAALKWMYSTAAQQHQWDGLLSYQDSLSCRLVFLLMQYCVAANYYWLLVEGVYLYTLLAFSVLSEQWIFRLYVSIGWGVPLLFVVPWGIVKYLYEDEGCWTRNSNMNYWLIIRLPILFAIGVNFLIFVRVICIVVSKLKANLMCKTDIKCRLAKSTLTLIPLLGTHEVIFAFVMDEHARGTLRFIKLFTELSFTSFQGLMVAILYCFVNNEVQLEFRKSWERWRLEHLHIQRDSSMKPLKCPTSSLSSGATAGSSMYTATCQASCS
Briefly: cell-based or functional assay.

Assay [3] addresses human glucagon receptor (human), P47871. Put plainly: cell-based or functional assay.
Assay [4] concerns the target T1, human GIP receptor (human), P48546. Briefly: radioligand competition SPA, HEK293 membranes. (Loss of bound radioactivity is the signal in a displacement assay; it reports binding, not function.)
The target of assay [5] is T2, human GLP-1 receptor (human), P43220. Put plainly: radioligand competition SPA, HEK293 membranes.
The target in assay [6] is human glucagon receptor (human), P47871. Put plainly: radioligand competition SPA, HEK293 membranes.

*1 amine or outer side, *2 acyl side, *3 side chain or, on linkers, in order; H or OH if unused. Where no end group is shown, it is not given here. Side-chain parts run from the residue outwards. [ ]: non-standard residue; d: D form. The star is where a group is joined. C20 diacid = O=C(O)CCCCCCCCCCCCCCCCCCC(=O)*; γGlu = O=C(O)[C@H](CCC(=O)[*:2])N[*:1]; αMeL = CC(C)C[C@](C)(N)C(=O)O; αMeK = C[C@](N)(CCCCN)C(=O)O; AEEA = NCCOCCOCC(=O)O; Aib = CC(C)(N)C(=O)O

Sequence of human glucagon receptor (human), P47871 (P47871 26-477): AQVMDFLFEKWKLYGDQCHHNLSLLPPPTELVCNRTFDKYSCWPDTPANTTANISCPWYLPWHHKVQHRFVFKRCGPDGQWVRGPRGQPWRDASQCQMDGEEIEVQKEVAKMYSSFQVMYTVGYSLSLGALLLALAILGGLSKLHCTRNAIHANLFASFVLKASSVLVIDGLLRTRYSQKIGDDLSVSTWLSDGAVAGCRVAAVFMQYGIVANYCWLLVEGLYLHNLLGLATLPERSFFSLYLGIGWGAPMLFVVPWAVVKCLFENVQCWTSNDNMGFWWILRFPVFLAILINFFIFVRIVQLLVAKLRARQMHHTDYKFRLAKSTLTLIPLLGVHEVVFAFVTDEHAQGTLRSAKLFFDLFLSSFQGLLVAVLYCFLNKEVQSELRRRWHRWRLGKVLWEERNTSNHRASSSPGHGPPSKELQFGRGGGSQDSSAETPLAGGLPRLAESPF

B1: Example 17 (peptide)
peptide: Y[Aib]QGTFTSDYSILLDKK([AEEA-AEEA-γGlu-C20 diacid])AQ[Aib]AFIEYLLE[Aib]GPSSGAPPPS-NH2
modifications: N-terminus assumed
SMILES: CC[C@H](C)[C@H](NC(=O)[C@H](Cc1ccccc1)NC(=O)[C@H](C)NC(=O)C(C)(C)NC(=O)[C@H](CCC(N)=O)NC(=O)[C@H](C)NC(=O)[C@H](CCCCNC(=O)COCCOCCNC(=O)COCCOCCNC(=O)CC[C@H](NC(=O)CCCCCCCCCCCCCCCCCCC(=O)O)C(=O)O)NC(=O)[C@H](CCCCN)NC(=O)[C@H](CC(=O)O)NC(=O)[C@H](CC(C)C)NC(=O)[C@H](CC(C)C)NC(=O)[C@@H](NC(=O)[C@H](CO)NC(=O)[C@H](Cc1ccc(O)cc1)NC(=O)[C@H](CC(=O)O)NC(=O)[C@H](CO)NC(=O)[C@@H](NC(=O)[C@H](Cc1ccccc1)NC(=O)[C@@H](NC(=O)CNC(=O)[C@H](CCC(N)=O)NC(=O)C(C)(C)NC(=O)[C@@H](N)Cc1ccc(O)cc1)[C@@H](C)O)[C@@H](C)O)[C@@H](C)CC)C(=O)N[C@@H](CCC(=O)O)C(=O)N[C@@H](Cc1ccc(O)cc1)C(=O)N[C@@H](CC(C)C)C(=O)N[C@@H](CC(C)C)C(=O)N[C@@H](CCC(=O)O)C(=O)NC(C)(C)C(=O)NCC(=O)N1CCC[C@H]1C(=O)N[C@@H](CO)C(=O)N[C@@H](CO)C(=O)NCC(=O)N[C@@H](C)C(=O)N1CCC[C@H]1C(=O)N1CCC[C@H]1C(=O)N1CCC[C@H]1C(=O)N[C@@H](CO)C(N)=O
Regarding B1, the cAMP EC50 (0.1% casein) in assay [1] is 0.0439 nM; in assay [2], 0.153 nM; in assay [3], 0.135 nM. Besides, the values for the cAMP EC50 (FBS and BSA present) in assay [1], in assay [2] and in assay [3] were 2.38 nM, 18.4 nM and 8.05 nM, respectively. Further, the Ki (commonly the equilibrium dissociation constant of an inhibitor or competing ligand from its target) in assay [4] is 0.0895 nM; in assay [5], 10.2 nM; in assay [6] it was 5.81 nM.

B2: Example 15 (peptide)
peptide: Y[Aib]QGTFTSDYSILLDKK([AEEA-AEEA-γGlu-C20 diacid])AQ[Aib]AFIEYLLA[Aib]GPSSGAPPPS-NH2
modifications: N-terminus assumed
SMILES: CC[C@H](C)[C@H](NC(=O)[C@H](Cc1ccccc1)NC(=O)[C@H](C)NC(=O)C(C)(C)NC(=O)[C@H](CCC(N)=O)NC(=O)[C@H](C)NC(=O)[C@H](CCCCNC(=O)COCCOCCNC(=O)COCCOCCNC(=O)CC[C@H](NC(=O)CCCCCCCCCCCCCCCCCCC(=O)O)C(=O)O)NC(=O)[C@H](CCCCN)NC(=O)[C@H](CC(=O)O)NC(=O)[C@H](CC(C)C)NC(=O)[C@H](CC(C)C)NC(=O)[C@@H](NC(=O)[C@H](CO)NC(=O)[C@H](Cc1ccc(O)cc1)NC(=O)[C@H](CC(=O)O)NC(=O)[C@H](CO)NC(=O)[C@@H](NC(=O)[C@H](Cc1ccccc1)NC(=O)[C@@H](NC(=O)CNC(=O)[C@H](CCC(N)=O)NC(=O)C(C)(C)NC(=O)[C@@H](N)Cc1ccc(O)cc1)[C@@H](C)O)[C@@H](C)O)[C@@H](C)CC)C(=O)N[C@@H](CCC(=O)O)C(=O)N[C@@H](Cc1ccc(O)cc1)C(=O)N[C@@H](CC(C)C)C(=O)N[C@@H](CC(C)C)C(=O)N[C@@H](C)C(=O)NC(C)(C)C(=O)NCC(=O)N1CCC[C@H]1C(=O)N[C@@H](CO)C(=O)N[C@@H](CO)C(=O)NCC(=O)N[C@@H](C)C(=O)N1CCC[C@H]1C(=O)N1CCC[C@H]1C(=O)N1CCC[C@H]1C(=O)N[C@@H](CO)C(N)=O
Take B2: the cAMP EC50 (0.1% casein) in assay [1] came out at 0.0689 nM; in assay [2], 0.253 nM; in assay [3], 0.131 nM. Besides, the cAMP EC50 (FBS and BSA present) in assay [1] was determined as 1.47 nM; in assay [2] it was 10.7 nM; in assay [3] it was 5.92 nM. Also, the Ki came to 0.0972 nM in assay [4], 5.8 nM in assay [5] and 4.56 nM in assay [6].

B3: Example 19 (peptide)
peptide: Y[Aib]QGTFTSDYSILLDKK([AEEA-γGlu-γGlu-C20 diacid])AQ[Aib]AFIEYLLE[Aib]GPSSGAPPPS-NH2
modifications: N-terminus assumed
SMILES: CC[C@H](C)[C@H](NC(=O)[C@H](Cc1ccccc1)NC(=O)[C@H](C)NC(=O)C(C)(C)NC(=O)[C@H](CCC(N)=O)NC(=O)[C@H](C)NC(=O)[C@H](CCCCNC(=O)COCCOCCNC(=O)CC[C@H](NC(=O)CC[C@H](NC(=O)CCCCCCCCCCCCCCCCCCC(=O)O)C(=O)O)C(=O)O)NC(=O)[C@H](CCCCN)NC(=O)[C@H](CC(=O)O)NC(=O)[C@H](CC(C)C)NC(=O)[C@H](CC(C)C)NC(=O)[C@@H](NC(=O)[C@H](CO)NC(=O)[C@H](Cc1ccc(O)cc1)NC(=O)[C@H](CC(=O)O)NC(=O)[C@H](CO)NC(=O)[C@@H](NC(=O)[C@H](Cc1ccccc1)NC(=O)[C@@H](NC(=O)CNC(=O)[C@H](CCC(N)=O)NC(=O)C(C)(C)NC(=O)[C@@H](N)Cc1ccc(O)cc1)[C@@H](C)O)[C@@H](C)O)[C@@H](C)CC)C(=O)N[C@@H](CCC(=O)O)C(=O)N[C@@H](Cc1ccc(O)cc1)C(=O)N[C@@H](CC(C)C)C(=O)N[C@@H](CC(C)C)C(=O)N[C@@H](CCC(=O)O)C(=O)NC(C)(C)C(=O)NCC(=O)N1CCC[C@H]1C(=O)N[C@@H](CO)C(=O)N[C@@H](CO)C(=O)NCC(=O)N[C@@H](C)C(=O)N1CCC[C@H]1C(=O)N1CCC[C@H]1C(=O)N1CCC[C@H]1C(=O)N[C@@H](CO)C(N)=O
Turning to B3, the figures for the cAMP EC50 (0.1% casein) in assay [1], in assay [2] and in assay [3] were 0.0455 nM, 0.143 nM and 0.0874 nM, respectively. The results for the cAMP EC50 (FBS and BSA present) in assay [1], in assay [2] and in assay [3] were 3.13 nM, 24.4 nM and 8.45 nM, respectively. The results for the Ki in assay [4], in assay [5] and in assay [6] were 0.0789 nM, 12 nM and 5.2 nM, respectively.
As to Y[Aib]QGTFTSDYSILLDKK([AEEA-AEEA-γGlu-C20 diacid])AQ[Aib]AFIEYLLEGGPSSGAPPPS-NH2 [Example 16], the cAMP EC50 (0.1% casein) worked out at 0.114 nM in assay [1], 0.157 nM in assay [2] and 0.174 nM in assay [3]. The cAMP EC50 (FBS and BSA present) was determined as 4.37 nM in assay [1], 19 nM in assay [2] and 13.2 nM in assay [3]. The Ki in assay [4] was determined as 0.106 nM; in assay [5], 16.1 nM; in assay [6], 11.5 nM.
On to Y[Aib]QGTFTSDYSI[αMeL]LDKK([AEEA-AEEA-γGlu-C20 diacid])AQ[αMeK]AFIEYLLEGGPSSGAPPPS-NH2 [Example 3], for which the results for the cAMP EC50 (0.1% casein) in assay [1], in assay [2] and in assay [3] were 0.0376 nM, 0.107 nM and 0.152 nM, respectively. In addition, the cAMP EC50 (FBS and BSA present) in assay [1] was 1.91 nM; in assay [3], 8.03 nM. Also, the Ki was 0.0446 nM in assay [4], 6.06 nM in assay [5] and 12 nM in assay [6].
For Y[Aib]QGTFTSDYSILLDKK([AEEA-γGlu-C20 diacid])AQ[Aib]AFIEYLLEGGPSSGAPPPS-NH2 [Example 18], the cAMP EC50 (0.1% casein) in assay [1] is 0.123 nM; in assay [2], 0.141 nM; in assay [3], 0.0861 nM. Further, the cAMP EC50 (FBS and BSA present) in assay [1] came to 5.89 nM; in assay [2], 16.1 nM; in assay [3], 5.71 nM. The Ki in assay [4] stood at 0.0835 nM; in assay [5], 8.06 nM; in assay [6], 5.71 nM.

The record behind these values is US20250313605A1.
